From US20250339529A1 (MINK THERAPEUTICS, published 2025) come the findings set out here.

Substitutions are numbered along the chain they refer to. In names and notes the source's numbering stands.

The target of assay [1] is T1, BCMA-Fc antigen (UniProt Q02223 1-54).
T1 construct: Immobilized on a protein A chip
T1 sequence (looked up): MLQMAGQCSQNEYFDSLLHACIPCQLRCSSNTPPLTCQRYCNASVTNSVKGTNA
Nature of the assay: flow cytometry, lentivirally transduced iNKT cells stained with BCMA-Fc and A647 anti-human IgG Fc; Donor 1, Enriched on K562-BCMA; Non transduced control 7.76. The method, then:
(§1) Purified and a-GalCer expanded iNKT cells from 2 donors were stimulated with TransAct (Miltenyi) and transduced with lentivirus (MOI 3) encoding for various 2nd Generation BCMA-CAR molecule and secreted IL-15. Constructs including F6G-Var2 IL-15, F6G variant 2 (no IL-15), F1G-IL-15, bb2121-IL-15, and CD19-CAR-IL-15 were tested. Cells were expanded for 10 to 12 days then transduced cells were co-cultured with K562 cells expressing BCMA at a ratio iNKT:K562 of 1:1. Cells were cultured and enriched with media supplemented with supporting cytokines IL-2 (100 IU/mL), IL-15 (100 UI/mL) and IL-21 (20 IU/mL). […]
(§2) Transduced cells pre-co-culture and enriched cells post co-culture with K562-BCMA were analyzed for CAR expression by flow cytometry (FIG. 17). iNKT cells were incubated with a LIVE/DEAD (Biolegend) reagents to separate live from dead cells and then stained for cell surface markers BCMA-CAR or CD19-CAR, BUV395 CD8 (BD, clone RPA-T8) and BUV563 CD4 (BD, clone OKT4). BCMA-CAR expression was detected with an unconjugated, primary BCMA-Fc reagent (AcroBiosystems) while CD19 CAR expression was detected with an unconjugated, primary CD19-Fc reagent (AcroBiosystems). […]

Assay [2] deals with T1, BCMA-Fc antigen. Nature of the assay: flow cytometry, lentivirally transduced iNKT cells stained with BCMA-Fc and A647 anti-human IgG Fc; Donor 2, Transduced; Non transduced control 0.74. The method, then:
as §1, §2

In assay [3] the target is T1, BCMA-Fc antigen. Nature of the assay: flow cytometry, lentivirally transduced iNKT cells stained with BCMA-Fc and A647 anti-human IgG Fc; Donor 1, Transduced; Non transduced control 2.00. The method, then:
as §1, §2
(In flow cytometry, cells or beads pass a laser one at a time.)

In assay [4] the target is T1, BCMA-Fc antigen. Nature of the assay: flow cytometry, lentivirally transduced iNKT cells stained with BCMA-Fc and A647 anti-human IgG Fc; Donor 2, Enriched on K562-BCMA; Non transduced control 1.34. The method, then: as §1, §2
For assay [5], the target named is T2, BCMA antigen (UniProt Q02223 1-54, limits assumed).
T2 construct: also called wild type BCMA
T2 sequence (looked up): T1 sequence (looked up)
Nature of the assay: SPR (Biacore T200), IgG captured on a protein A chip, huBCMA as analyte, 1:1 Binding model, 25 C. How it is done: (§3) To test the affinity of BCMA F6G variants their binding domains were expressed as IgGs and captured to a protein A chip. BCMA antigen was flowed over the chip at […] concentrations. Experiment was run on Biacore T200. […] The CARs were expressed as IgGs and captured to a protein A chip. BCMA antigen was flowed over the chip at […]. concentrations. Experiment was run on Biacore T200.
(In general: Surface plasmon resonance follows binding to a sensor surface in real time, without labels.)

The target in assay [6] is T2, BCMA antigen. Kind of assay: flow cytometry, iNKT cells transiently transfected with BCMA CAR-RFP mRNA and stained with soluble BCMA-APC, two donors. The method, then: INKT cells from two donors were transiently transfected with F6G variants and anti-BCMA-CAR iNKT cell-mediated killing of tumor cells were tested. Flow cytometry analysis of RFP expression to show CAR expression and antigen binding with BCMA-APC in BCMA-CAR iNKTs (FIGS. 13A-13C). The level of BCMA expression on each tumor cell line was assessed by flow cytometry where left peak show isotype staining and right peak show BCMA expression (FIG. 13D). iNKT cells expressing anti-BCMA CAR (as shown in FIG. 13A) were co-cultured with tumor cell lines endogenously expressing BCMA or K562 for 24 hrs at 3 different effector-to-target ratios. After 24 hr co-coculture, cytotoxicity assay was analyzed by flow cytometry for percentage of dead target cells (FIG. 13E), percentage of CD69/CD25 co-expressing iNKT cells (FIG. 13F) and percentage of 4-1BB expressing iNKT cells (FIG. 13G).

The target in assay [7] is T2, BCMA antigen. Nature of the assay: SPR (Biacore 4000), cell-free expressed scFv on BCMA antigen. From the text: Further, a germlined version of F6 (F6G) was affinity matured by a combination of two methods: Accelerated Drug Discovery (ADD) approach and affinity maturation of by phage libraries. FIGS. 9A-9C describe the ADD approach. FIG. 9A is a schematic representation of the CDR positions undergone mutagenesis. Each amino acid in the heavy and light CDRs was substituted with 8 different amino acids; Tyr, Ser, Pro, Leu, his, Gly, Asp, Asn. Fragments containing single amino acids substitutions were generated by mutagenesis PCR. The PCR fragments were then used as a template to express the scFv in a cell free system. Affinity KD (M) values of mutant scFvs binding to BCMA antigen. Experiment was run in Biacore 4000. The dotted line indicates the binding of the parental F6G clone. KD below the dotted line means improvement in affinity. […] Individual Biacore sensorgrams for E to Y substitution in position 49 of CDRL2 are shown (FIG. 9C).

The target of assay [8] is T2, BCMA antigen. Nature of the assay: SPR (Biacore T200), IgG captured on a protein A chip, huBCMA as analyte, 1:1 Binding model, 25 C; same panel as in FIG. 11. The method, then: as §3

For the molecule “bb2121 CAR on iNKT cells (clinical benchmark)”, the % of cells in the CAR+ gate in assay [1] was determined as 95.5%; in assay [2], 36.2%; in assay [3], 15.9%; in assay [4] it was 94.1%.

A word on the Kd: it is a measure of binding affinity in units of concentration. A word on the koff: it is a measure of how fast the partners let go of each other. Lower therefore signals a long-lived complex. Broadly, the kon is a measure of how fast the partners come together. A higher kon goes with fast association. In the case of Bb2121 huIgG1 (antibody), in assay [5], the dissociation constant (Kd) was 1.67 nM, the koff amounted to 0.00484 s⁻¹ and the on-rate (kon) amounted to 2.89e+06 M⁻¹ s⁻¹.

B1: F6G-Var1 (other)
CAR polypeptide: QVQLVQSGAEVKKPGASVKVSCKASGYTFTGYYMHWVRQAPGQGLEWMGWMNPNSGNTGYAQKFQGRVTMTRNTSISTAYMELSSLRSEDTAVYYCARAQWEPLDYWGQGTLVTVSSGGGGSGGGGSGGGASSYELTQPPSVSVSPGQTARITCSGDALPKKYTYWYQQKSGQAPVLVIYYDTKRPSGIPERFSGSSSGTMATLTISGAQVEDEADYYCLSTDPTGQESVFGGGTKLTVLGQPAAATTTPAPRPPTPAPTIASQPLSLRPEACRPAAGGAVHTRGLDFACDIYIWAPLAGTCGVLLLSLVITLYCKRGRKKLLYIFKQPFMRPVQTTQEEDGCSCRFPEEEEGGCELRVKFSRSADAPAYQQGQNQLYNELNLGRREEYDVLDKRRGRDPEMGGKPRRKNPQEGLYNELQKDKMAEAYSEIGMKGERRRGKGHDGLYQGLSTATKDTYDALHMQALPPR
notes: also called F6G-Var1 CAR on iNKT cells (transient, CAR-RFP mRNA)
As for B1, in assay [6], the binding result is given as “binds”.

B2: F6G-Var6 (other)
CAR polypeptide: B1 CAR polypeptide with G31E, H35K, S55T, N57K
notes: also called F6G-Var6 CAR on iNKT cells (transient, CAR-RFP mRNA)
As for B2, in assay [6], the binding result was “binds”.

B3: F6G (other)
CAR polypeptide: B1 CAR polypeptide with Y181E
notes: also called F6G CAR on iNKT cells (transient, CAR-RFP mRNA)
As to B3, the binding result in assay [6] is on record as “binds”.

B4: F6G-Var4 (other)
CAR polypeptide: B1 CAR polypeptide with D223H, T225A
notes: also called F6G-Var4 CAR on iNKT cells (transient, CAR-RFP mRNA)
For the molecule B4, the binding result in assay [6] is given as “binds”.

B5: F6G-Var5 (other)
CAR polypeptide: B1 CAR polypeptide with D223N, Q227H
notes: also called F6G-Var5 CAR on iNKT cells (transient, CAR-RFP mRNA)
Take B5: the binding result in assay [6] was “binds”.

B6: F6G-Var3 (other)
CAR polypeptide: B1 CAR polypeptide with H35Q, N54I, D223N, Q227H
notes: also called F6G-Var3 CAR on iNKT cells (transient, CAR-RFP mRNA)
Consider B6, for which, in assay [6], the binding result is “binds”.

B7: F1G scFv CAR on iNKT cells (other)
chain: QVQLVQSGAEVKKPGASVKVSCKASGYTFTSYGISWVRQAPGQGLEWMGWISAYNGNTYYAEDLQGRLTMTTDTSTSTAYMELRSLRSDDTAVYYCAREGSYYDSSGYYLPYWGQGTLVTVSSGGGGSGGGGSGGGASQSALTQPRSVSGSPGQSVTISCTGTSSDVGAYNYVSWYQQHPGKAPKLMIYDVTERPSGVPDRFSGSKSGNTASLTISGLQAEDEADYYCSSYTSSSIAFGGGTKLTVLGQPAAATTTPAPRPPTPAPTIASQPLSLRPEACRPAAGGAVHTRGLDFACDIYIWAPLAGTCGVLLLSLVITLYCKRGRKKLLYIFKQPFMRPVQTTQEEDGCSCRFPEEEEGGCELRVKFSRSADAPAYQQGQNQLYNELNLGRREEYDVLDKRRGRDPEMGGKPRRKNPQEGLYNELQKDKMAEAYSEIGMKGERRRGKGHDGLYQGLSTATKDTYDALHMQALPPR
notes: Chimeric antigen receptor on iNKT cells with secreted IL-15; also called F1G-IL-15; F1G IL-15
With B7, the “% of cells in the CAR+ gate” value was determined as 31.4% in assay [1], 20.9% in assay [2], 20.7% in assay [3] and 93.1% in assay [4].

B8: F6G scFv (germlined F6, parental clone of the ADD mutagenesis) (scFv)
scFv: QVQLVQSGAEVKKPGASVKVSCKASGYTFTGYYMHWVRQAPGQGLEWMGWMNPNSGNTGYAQKFQGRVTMTRNTSISTAYMELSSLRSEDTAVYYCARAQWEPLDYWGQGTLVTVSSGGGGSGGGGSGGGASSYELTQPPSVSVSPGQTARITCSGDALPKKYTYWYQQKSGQAPVLVIYEDTKRPSGIPERFSGSSSGTMATLTISGAQVEDEADYYCLSTDPTGQESVFGGGTKLTVLGQP
notes: scFv expressed in a cell free system from PCR fragments; also called parental F6G clone; germline F6G
On to B8, for which the binding result in assay [7] is reported as “binds”.

B9: F6G scFv with E to Y substitution in position 49 of CDRL2 (scFv)
scFv: B8 scFv with E181Y
notes: Cell free expressed scFv; also called E to Y substitution in position 49 of light CDRL2
In the case of B9, in assay [7], the binding result is on record as “binds”.

B10: F6Gvar2 (antibody, V domains shown)
VH: QVQLVQSGAEVKKPGASVKVSCKASGYTFTGYYMQWVRQAPGQGLEWMGWMNPISGNTGYAQKFQGRVTMTRNTSISTAYMELSSLRSEDTAVYYCARAQWEPLDYWGQGTLVTVSS
VL: SYELTQPPSVSVSPGQTARITCSGDALPKKYTYWYQQKSGQAPVLVIYYDTKRPSGIPERFSGSSSGTMATLTISGAQVEDEADYYCLSTHPAGQESVFGGGTKLTVLG
Regarding B10, in assay [5], the affinity, expressed as Kd, was 2.35 nM; the koff amounted to 0.000325 s⁻¹; the kon turned out to be 138000 M⁻¹ s⁻¹. In assay [8], this molecule registered a Kd of 2.35 nM, a koff of 0.000325 s⁻¹ and a kon of 138000 M⁻¹ s⁻¹.

B11: F6Gvar3 (antibody, V domains shown)
VH: B10 VH
VL: B10 VL with H91N, A93T, Q95H
In assay [5], B11 came in with a Kd of 2.12 nM, an off-rate constant (koff) of 0.000317 s⁻¹ and an on-rate constant (kon) of 150000 M⁻¹ s⁻¹.

B12: F6G huIgG1 (antibody, V domains shown)
VH: B10 VH with Q35H, I54N
VL: B10 VL with Y49E, H91D, A93T
notes: also called germline F6G expressed as human IgG1
In assay [5], B12 came in with an equilibrium dissociation constant (Kd) of 97.8 nM, an off-rate (koff) of 0.0197 s⁻¹ and a kon of 201000 M⁻¹ s⁻¹.
